The record followed here is publication PMC3329130 (Biochemistry, 2012).

In general, stoichiometry N refers to the number of molecules, sites or subunits per partner or assembly.

Numbering of substitutions follows the chain as printed. In names and notes the source's numbering stands.

Series [1] addresses T1, Sac1 (phosphatase domain of yeast Sac1, residues 1-511) (Saccharomyces cerevisiae, UniProt P32368).
T1 sequence (P32368 1-511): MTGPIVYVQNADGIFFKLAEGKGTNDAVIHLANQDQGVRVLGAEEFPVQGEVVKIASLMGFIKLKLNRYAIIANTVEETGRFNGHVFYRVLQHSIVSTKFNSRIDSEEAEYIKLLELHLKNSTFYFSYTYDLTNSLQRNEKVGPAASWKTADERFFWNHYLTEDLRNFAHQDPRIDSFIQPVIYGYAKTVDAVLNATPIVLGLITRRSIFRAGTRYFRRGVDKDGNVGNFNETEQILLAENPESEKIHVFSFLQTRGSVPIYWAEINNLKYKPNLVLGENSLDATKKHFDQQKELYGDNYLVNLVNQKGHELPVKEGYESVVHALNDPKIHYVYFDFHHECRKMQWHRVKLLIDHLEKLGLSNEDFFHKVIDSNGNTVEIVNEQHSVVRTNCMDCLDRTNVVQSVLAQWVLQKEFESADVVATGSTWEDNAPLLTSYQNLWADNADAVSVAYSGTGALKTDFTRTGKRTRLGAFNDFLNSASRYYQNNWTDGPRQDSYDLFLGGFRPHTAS
The series can be described thus: malachite green phosphate release, PI. In kind it is biochemical. To be noted: fixed PI(4)P, pH 6.8, room temperature; allosteric activator.

For series [2], the target named is yeast Sac1 phosphatase domain (amino acids 1-511) (yeast) (UniProt P32368). Description: AUC.
Substrate in the series “purified protein”: CCCCCCCC(=O)OC[C@H](COP(=O)(O)O[C@H]1[C@H](O)[C@@H](O)[C@H](OP(=O)(O)O)[C@@H](O)[C@H]1O)OC(=O)CCCCCCC
Description: purified protein. The conditions noted are these: no activator; sigmoidal, Hill coefficient 3.6 ± 0.3; buffer as for wild type.

Consider `CCCCCCCC(=O)OC[C@H](COP(=O)(O)OC[C@H](N)C(=O)O)OC(=O)CCCCCCC` [diC8 PS], for which the activation result in series [1] is “Sac1 is strongly activated by phosphatidylserine (PS)”.

Consider “yeast Sac1 phosphatase domain (amino acids 1-511) (from UniProt P32368 1-511) (domain or fragment)”, for which, in series [2], the percent of the protein in the dimeric form was determined as 20% and the stoichiometry N was 2.

B1: Sac1 (phosphatase domain of yeast Sac1, residues 1-511) (Saccharomyces cerevisiae S288C; R207Q) (protein)
chain: T1 sequence (P32368 1-511) with R207Q
As to B1, in the series “purified protein”, the K0.5 turned out to be 46 ± 5 µM.
